Assay results: patent publication US6410775
Bridge positions count the residues as written; N and C are the ends. Square brackets hold non-standard residues; d marks the D form. Ends that are not written are not given here. NMeL = CN[C@@H](CC(C)C)C(=O)O; Phg = N[C@H](C(=O)O)c1ccccc1; NMeV = CN[C@H](C(=O)O)C(C)C; Orn = NCCC[C@H](N)C(=O)O; ATU = not defined here; Aib = CC(C)(N)C(=O)O; Sar = CNCC(=O)O

Target: ACA-6501 aPL antibody
Assay: competitive ELISA I50; antibody not given, ACA-6501 serum on CL/β2-GPI assumed (Ex. 4B)

CLAVLGKLC [3G3 Ala scan 2: …]
IC50: 170 µg/mL

CL[Sar]VLGKLC (not fully specified (bridges); cysteine pairing not given here) [3G3 N-Me amino acids 3: CL-nG-VLGKLC]
IC50: 70 µg/mL

B1: 3G3 conformational scan 24: CLGVLGK-pG-C (peptide)
peptide: CLGVLGK[Phg]C
modifications: not fully specified (bridges); printed as CLGVLGK-pG-C; cysteine pairing not given here
IC50: 80 µg/mL

CLGVLGKPC [3G3 conformational scan 17 (Pro scan): …]
IC50: 550 µg/mL

CL[Phg]VLGKLC (not fully specified (bridges); cysteine pairing not given here) [3G3 conformational scan 19: CL-pG-VLGKLC]
IC50: 70 µg/mL

CLG[dV][dL]GKLC (not fully specified (bridges); cysteine pairing not given here) [3G3 D amino acids 10: CLG-dV-dL-GKLC]
IC50: 50 µg/mL

B2: 3G3 conformational scan 29: CLGVL-aiB-KLC (peptide)
peptide: CLGVL[Aib]KLC
modifications: not fully specified (bridges); printed as CLGVL-aiB-KLC; cysteine pairing not given here
IC50: 110 µg/mL

B3: 3G3 conformational scan 26: CL-aiB-VLGKLC (peptide)
peptide: CL[Aib]VLGKLC
modifications: not fully specified (bridges); printed as CL-aiB-VLGKLC; cysteine pairing not given here
IC50: 80 µg/mL

CLGVLGKLC (cyclic thioether in place of the disulfide) [CCTE, LJP 698 (cyclic thioether analog of 3G3, C-LGVLGKL-C)]
IC50: 110 µg/mL

CLGVLGKLCPG [3G3 truncation 4: …]
IC50: 460 µg/mL

CLGVL[dA]KLC (not fully specified (bridges); cysteine pairing not given here) [3G3 D amino acids 22: CLGVL-dA-KLC]
IC50: 140 µg/mL

CVGVLGKLC [3G3 branched aliphatic 2: …]
IC50: 130 µg/mL

CLGVLGKLX (homocysteine (Hc) at position 9; cyclic thioether) [CHTE, LJP 702 (cyclic thioether analog of 3G3, C-LGVLGKL-Hc)]
IC50: 92 µg/mL

XLGVLGKLX (homocysteine (Hc) at positions 1 and 9; cyclic thioether) [HHTE, LJP 703 (cyclic thioether analog of 3G3, Hc-LGVLGKL-Hc)]
IC50: 80 µg/mL

B4: 3G3 conformational scan 27: CLG-aiB-LGKLC (peptide)
peptide: CLG[Aib]LGKLC
modifications: not fully specified (bridges); printed as CLG-aiB-LGKLC; cysteine pairing not given here
IC50: 110 µg/mL

GPCLGVLGKLCPG [3G3 truncation 2: …]
IC50: 180 µg/mL

PCLGVLGKLCPG [3G3 truncation 3: …]
IC50: 420 µg/mL

CLGVLGKLC (disulfide 1-9 (inferred)) [LJP 690 …]
IC50: 10 µg/mL

CIGVLGKLC [3G3 branched aliphatic 1: …]
IC50: 60 µg/mL

CLGVLG[dK][dL]C (not fully specified (bridges); cysteine pairing not given here) [3G3 D amino acids 18: CLGVLG-dK-dL-C]
IC50: 150 µg/mL

CLGVLGRLC [3G3 basic amino acid 1: …]
IC50: 160 µg/mL

CLG[NMeV]LGKLC (not fully specified (bridges); cysteine pairing not given here) [3G3 N-Me amino acids 4: CLG-nV-LGKLC]
IC50: 220 µg/mL

CLGVLG[Orn]LC (not fully specified (bridges); cysteine pairing not given here) [3G3 basic amino acid 2: CLGVLG-Or-LC]
IC50: 40 µg/mL

XLGVLGKLC (homocysteine (Hc) at position 1; cyclic thioether) [HCTE, LJP 699 (cyclic thioether analog of 3G3, Hc-LGVLGKL-C)]
IC50: 46 µg/mL

CLGVLGKLC (not fully specified; "TGR resin" printed after the C-terminus) [3G3 others 3: … TGR resin]
IC50: 500 µg/mL

CLPVLGKLC [3G3 conformational scan 12 (Pro scan): …]
IC50: 340 µg/mL

CLGVLGPLC [3G3 conformational scan 16 (Pro scan): …]
IC50: 160 µg/mL

CLGALGKLC [3G3 Ala scan 3: …]
IC50: 260 µg/mL

B5: 3G3 conformational scan 23: CLGVLG-pG-LC (peptide)
peptide: CLGVLG[Phg]LC
modifications: not fully specified (bridges); printed as CLGVLG-pG-LC; cysteine pairing not given here
IC50: 230 µg/mL

CPGVLGKLC [3G3 conformational scan 11 (Pro scan): …]
IC50: 160 µg/mL

CLGVLGK[NMeL]C (not fully specified (bridges); cysteine pairing not given here) [3G3 N-Me amino acids 8: CLGVLGK-nL-C]
IC50: 240 µg/mL

CLGVLGKAC [3G3 Ala scan 7: …]
IC50: 360 µg/mL

B6: 3G3 conformational scan 21: CLGV-pG-GKLC (peptide)
peptide: CLGV[Phg]GKLC
modifications: not fully specified (bridges); printed as CLGV-pG-GKLC; cysteine pairing not given here
IC50: 35 µg/mL

CLGVLG[dL][dL]C (not fully specified (bridges); cysteine pairing not given here) [3G3 D amino acids 21: CLGVLG-dL-dL-C]
IC50: 140 µg/mL

B7: 3G3 conformational scan 31: CLGVLGK-aiB-C (peptide)
peptide: CLGVLGK[Aib]C
modifications: not fully specified (bridges); printed as CLGVLGK-aiB-C; cysteine pairing not given here
IC50: > 470 µg/mL

CLGVLG[dK]LC (not fully specified (bridges); cysteine pairing not given here) [3G3 D amino acids 5: CLGVLG-dK-LC]
IC50: 170 µg/mL

CLGVLGKLC (not fully specified; C-terminal ATU-Y as printed (ATU linker, then Tyr)) [3G3 others 1: …-ATU-Y]
IC50: 300 µg/mL

[dP]CLGVLGKLC (not fully specified (bridges); cysteine pairing not given here) [3G3 D amino acids 1: dP-…]
IC50: 120 µg/mL

B8: 3G3 conformational scan 20: CLG-pG-LGKLC (peptide)
peptide: CLG[Phg]LGKLC
modifications: not fully specified (bridges); printed as CLG-pG-LGKLC; cysteine pairing not given here
IC50: 70 µg/mL

C[Phg]GVLGKLC (not fully specified (bridges); cysteine pairing not given here) [3G3 conformational scan 18: C-pG-GVLGKLC]
IC50: 130 µg/mL

B9: 3G3 others 2: Y-ATU-… (peptide)
peptide: {Tyr-ATU}-CLGVLGKLC
modifications: not fully specified (bridges); printed as Y-ATU-CLGVLGKLC; cysteine pairing not given here; reading uncertain
IC50: 170 µg/mL

CLGPLGKLC [3G3 conformational scan 13 (Pro scan): …]
IC50: 180 µg/mL

CLGV[dL]GKLC (not fully specified (bridges); cysteine pairing not given here) [3G3 D amino acids 4: CLGV-dL-GKLC]
IC50: 230 µg/mL

CLGVLPKLC [3G3 conformational scan 15 (Pro scan): …]
IC50: 350 µg/mL

CLGVLAKLC [3G3 Ala scan 5: … (peptide 925)]
IC50: 40 µg/mL

B10: 3G3 conformational scan 30: CLGVLG-aiB-LC (peptide)
peptide: CLGVLG[Aib]LC
modifications: not fully specified (bridges); printed as CLGVLG-aiB-LC; cysteine pairing not given here
IC50: 460 µg/mL

CLGV[NMeL]GKLC (not fully specified (bridges); cysteine pairing not given here) [3G3 N-Me amino acids 5: CLGV-nL-GKLC]
IC50: 180 µg/mL

CGGVLGKLC [3G3 Gly scan 1: …]
IC50: 310 µg/mL

CLGVL[Sar]KLC (not fully specified (bridges); cysteine pairing not given here) [3G3 N-Me amino acids 6: CLGVL-nG-KLC]
IC50: 550 µg/mL

AGPCLGVLGKLCG [3G3 truncation 5: … (as printed)]
IC50: 450 µg/mL

B11: 3G3 conformational scan 25 (alpha Me AA): C-aiB-GVLGKLC (peptide)
peptide: C[Aib]GVLGKLC
modifications: not fully specified (bridges); printed as C-aiB-GVLGKLC; cysteine pairing not given here
IC50: 370 µg/mL

CLGVLGK[dL]C (not fully specified (bridges); cysteine pairing not given here) [3G3 D amino acids 6: CLGVLGK-dL-C]
IC50: 140 µg/mL

CLGVLGKGC [3G3 Gly scan 5: …]
IC50: 500 µg/mL

CAGVLGKLC [3G3 Ala scan 1: …]
IC50: 200 µg/mL
